Substitutions are numbered along the chain they refer to. Blank lines part the entries; values can stand above or below the binder they belong to.
What was measured:
[1] = biological target: T1, recombinant human DLL3 (ELISA coat) (human, UniProt Q9NYJ7 27-492); test: ELISA, plate coated with recombinant human DLL3 0.5 µg/ml, anti-mouse IgG-HRP
T1 sequence: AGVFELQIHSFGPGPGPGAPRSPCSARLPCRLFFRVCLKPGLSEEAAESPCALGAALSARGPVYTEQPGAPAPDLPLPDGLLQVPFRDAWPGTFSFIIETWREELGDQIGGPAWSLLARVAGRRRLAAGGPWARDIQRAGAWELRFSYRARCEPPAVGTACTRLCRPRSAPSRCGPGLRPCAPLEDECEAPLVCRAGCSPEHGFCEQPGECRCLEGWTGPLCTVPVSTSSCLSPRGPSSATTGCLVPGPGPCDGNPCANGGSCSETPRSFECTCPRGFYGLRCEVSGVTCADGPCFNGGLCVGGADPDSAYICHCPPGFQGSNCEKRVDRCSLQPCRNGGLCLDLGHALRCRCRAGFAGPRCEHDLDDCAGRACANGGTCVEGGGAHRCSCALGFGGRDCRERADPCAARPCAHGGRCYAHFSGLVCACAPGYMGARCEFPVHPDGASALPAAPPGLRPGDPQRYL
Procedure: (§1) To investigate the binding of anti-DLL3 antibodies to human DLL3, wells of high binding flat-bottom plates were coated with recombinant human DLL3 diluted to 0.5 μg/ml. To assess cross-reactivity of the antibodies to DLL1/DLL4, which are closely related family members to DLL3, plates were coated with recombinant human DLL1 diluted to 1 μg/ml, or human DLL4 diluted to 0.5 μg/ml. […] Binding was detected using anti-mouse IgG-HRP and 3,3′,5,5′-Tetramethylbenzidine (TMB) substrate. Signals were normalized to the corresponding positive control antibody.
Table 38 lists the calculated EC₅₀ based on the binding data from FIG. 24.

[2] = biological target: T2, recombinant human DLL1 (human, UniProt O00548 18-540, limits assumed); test: ELISA, plate-bound recombinant human DLL1 (1 µg/mL), anti-mouse IgG-HRP/TMB, % of positive control max
T2 sequence (looked up): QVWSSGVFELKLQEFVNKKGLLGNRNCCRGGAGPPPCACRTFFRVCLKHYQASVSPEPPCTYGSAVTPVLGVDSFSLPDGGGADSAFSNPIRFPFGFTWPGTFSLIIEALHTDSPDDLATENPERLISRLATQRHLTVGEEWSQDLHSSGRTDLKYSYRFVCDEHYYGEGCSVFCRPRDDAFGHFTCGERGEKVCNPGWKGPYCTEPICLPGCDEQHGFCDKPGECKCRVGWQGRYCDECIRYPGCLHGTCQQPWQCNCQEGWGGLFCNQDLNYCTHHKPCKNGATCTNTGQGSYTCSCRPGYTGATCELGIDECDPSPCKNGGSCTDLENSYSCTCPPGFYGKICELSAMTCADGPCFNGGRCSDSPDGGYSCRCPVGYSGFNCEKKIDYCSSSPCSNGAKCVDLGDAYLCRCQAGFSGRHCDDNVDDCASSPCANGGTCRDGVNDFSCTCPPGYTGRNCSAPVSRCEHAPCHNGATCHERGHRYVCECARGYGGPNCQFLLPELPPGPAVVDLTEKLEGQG
Procedure: as §1

[3] = biological target: recombinant human DLL4 (human, UniProt Q9NR61 27-524, limits assumed); test: ELISA, plate-bound recombinant human DLL4 (0.5 µg/mL), anti-mouse IgG-HRP/TMB, % of positive control max
Procedure: as §1

[4] = biological target: T3, recombinant human NKG2D-Fc fusion protein (human, UniProt P26718 73-216); test: ELISA, plate-bound recombinant human NKG2D-Fc, anti-human kappa-HRP/TMB
T3 construct: extracellular domain; also called NKG2D-Fc-biotin; not shown: human IgG1 Fc domain
T3 sequence (looked up): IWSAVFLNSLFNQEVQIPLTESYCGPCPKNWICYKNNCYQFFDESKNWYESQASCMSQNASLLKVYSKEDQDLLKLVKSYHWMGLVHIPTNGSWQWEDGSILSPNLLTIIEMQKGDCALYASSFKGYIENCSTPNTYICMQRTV
Source text: (§2) The nucleic acid sequences of human, mouse or cynomolgus NKG2D ectodomains were fused with nucleic acid sequences encoding human IgG1 Fc domains and introduced into mammalian cells to be expressed. After purification, NKG2D-Fc fusion proteins were adsorbed to wells of microplates. After blocking the wells with bovine serum albumin to prevent non-specific binding, NKG2D-binding domains were titrated and added to the wells pre-adsorbed with NKG2D-Fc fusion proteins. Primary antibody binding was detected using a secondary antibody which was conjugated to horseradish peroxidase and specifically recognizes a human kappa light chain to avoid Fc cross-reactivity. 3,3′,5,5′-Tetramethylbenzidine (TMB), a substrate for horseradish peroxidase, was added to the wells to visualize the binding signal, whose absorbance was measured at 450 nm and corrected at […]. An NKG2D-binding domain clone, an isotype control or a positive control (comprising heavy chain and light chain variable domains selected from SEQ ID NOs:101-104, or anti-mouse NKG2D clones MI-6 and CX-5, eBioscience, San Diego, Calif.) was added to each well.

[5] = biological target: T4, recombinant mouse NKG2D-Fc fusion protein (mouse; human, UniProt O54709 90-232); test: ELISA, plate-bound recombinant mouse NKG2D-Fc, anti-human kappa-HRP/TMB
T4 construct: extracellular domain; also called Mouse NKG2D-Fc-biotin; not shown: human IgG1 Fc domain
T4 sequence (looked up): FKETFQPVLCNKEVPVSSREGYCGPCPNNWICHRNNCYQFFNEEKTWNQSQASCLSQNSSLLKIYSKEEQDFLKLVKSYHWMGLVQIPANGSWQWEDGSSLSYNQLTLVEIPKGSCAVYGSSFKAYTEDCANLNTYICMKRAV
Source text: as §2

[6] = biological target: T5, recombinant cynomolgus NKG2D-Fc fusion protein (cynomolgus; human, UniProt P61252 73-216); test: ELISA, plate-bound recombinant cynomolgus NKG2D-Fc, anti-human kappa-HRP/TMB
T5 construct: extracellular domain; not shown: human IgG1 Fc domain
T5 sequence (looked up): T3 sequence (looked up) with D43N, T133I
Source text: as §2

[7] = biological target: T3, recombinant human NKG2D-Fc fusion …; test: competition ELISA: plate-bound human NKG2D-Fc, saturating ULBP-6-His-biotin as blocked ligand, streptavidin-HRP
Procedure: Recombinant human NKG2D-Fc proteins were adsorbed to wells of a microplate, and the wells were blocked with bovine serum albumin to reduce non-specific binding. A saturating concentration of ULBP-6-His-biotin was added to the wells, followed by addition of the NKG2D-binding domain clones. After a 2-hour incubation, wells were washed and ULBP-6-His-biotin that remained bound to the NKG2D-Fc coated wells was detected by streptavidin-conjugated to horseradish peroxidase and TMB substrate. Absorbance was measured at 450 nm and corrected at […]. After subtracting background, specific binding of NKG2D-binding domains to the NKG2D-Fc proteins was calculated from the percentage of ULBP-6-His-biotin that was blocked from binding to the NKG2D-Fc proteins in wells.

[8] = biological target: T4, recombinant mouse NKG2D-Fc fusion …; test: competition ELISA: plate-bound mouse Rae-1 delta-Fc, mouse NKG2D-Fc-biotin in solution; blocked ligand Rae-1 delta
Procedure: Recombinant mouse Rae-1 delta-Fc (R&D Systems, Minneapolis, Minn.) was adsorbed to wells of a microplate, and the wells were blocked with bovine serum albumin to reduce non-specific binding. Mouse NKG2D-Fc-biotin was added to the wells followed by NKG2D-binding domains. After incubation and washing, NKG2D-Fc-biotin that remained bound to Rae-1delta-Fc coated wells was detected using streptavidin-HRP and TMB substrate. Absorbance was measured at 450 nm and corrected at […]. After subtracting background, specific binding of NKG2D-binding domains to the NKG2D-Fc proteins was calculated from the percentage of NKG2D-Fc-biotin that was blocked from binding to the Rae-1delta-Fc coated wells.

[9] = biological target: T6, human DLL3-His (human, UniProt Q9NYJ7 27-492); test: SPR (Biacore 8K), 37 C, antibody captured on anti-human Fc, DLL3-His 0.411-300 nM injected, 1:1 fit
T6 construct: also called hDLL3
T6 sequence: T1 sequence
Source text: The kinetics of binding of different humanized variants and parental murine 5E7 antibody to human DLL3-His was studied by Surface Plasmon Resonance using a Biacore 8K instrument. Briefly, anti-hFc and anti-mFc IgG proteins were covalently immobilized onto different channels of CMS chip to allow simultaneous analysis of human and murine antibodies. m5E7 was captured on the anti-mouse Fc channel and humanized variants were captured on the anti-human Fc channel at a desired capture level of […] in HBS-EP+ buffer supplemented with 0.1% BSA. Three buffer blanks and human DLL3-His (analyte) at concentrations 0.411-300 nM (in three fold dilutions) were injected over the surface with captured murine or humanized 5E7 for 300 second association time and let dissociate for 600 second at a flow rate of 30 μL/min. The surfaces were subjected to regeneration with three 20-second pulses of 10 mM glycine pH 1.70 at a flow rate of 100 μL/min between every concentration of analyte. The experiment was conducted at 37° C. Data were double referenced and a 1:1 fit model was applied to the sensorgrams in the Biacore Insight Evaluation software.
The kinetic parameters of human DLL3-His binding to murine and humanized variants of 5E7 antibody variants were calculated and shown in Table 39.

[10] = biological target: T7, full-length form of the extracellular portion of DLL3 expressed on transduced RPMI-8226 cells (Homo sapiens (Human), UniProt Q9NYJ7 27-492); test: flow cytometry, RPMI-8226 cells transduced to express full-length extracellular DLL3, fluorophore-conjugated anti-human IgG
T7 construct: also called DLL3-D1-6; DLL3+ RPMI-8226 cells
T7 sequence: T1 sequence
Procedure: Anti-DLL3 mAbs were diluted and incubated with DLL3⁺ RPMI-8226 cells. The cells were analyzed by flow cytometry and binding of a mAb was detected using a fluorophore conjugated anti-human IgG secondary antibody.

Chain of recombinant human DLL4 (Q9NR61 27-524 limits assumed): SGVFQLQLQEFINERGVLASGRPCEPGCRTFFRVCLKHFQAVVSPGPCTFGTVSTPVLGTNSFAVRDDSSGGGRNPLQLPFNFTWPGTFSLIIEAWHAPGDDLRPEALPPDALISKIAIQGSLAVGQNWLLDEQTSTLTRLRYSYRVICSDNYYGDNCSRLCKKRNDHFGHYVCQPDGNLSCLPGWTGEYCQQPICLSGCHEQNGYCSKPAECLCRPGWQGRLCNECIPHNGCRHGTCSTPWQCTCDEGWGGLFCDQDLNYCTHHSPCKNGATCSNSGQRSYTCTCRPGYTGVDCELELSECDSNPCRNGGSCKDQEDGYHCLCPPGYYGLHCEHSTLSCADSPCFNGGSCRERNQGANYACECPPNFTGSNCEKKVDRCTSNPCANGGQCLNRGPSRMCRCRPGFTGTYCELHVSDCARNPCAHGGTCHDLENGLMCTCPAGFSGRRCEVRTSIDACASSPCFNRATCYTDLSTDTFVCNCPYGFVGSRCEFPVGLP

Kd [9]: 8.72 nM | koff [9]: 0.00697 s⁻¹ | kon [9]: 799000 M⁻¹ s⁻¹ | EC50 (read off the curve) [10]: ~7 nM
B4: humanized anti-DLL3 antibody h5E7 (antibody, V domains shown)
VH: QVQLVQSGAEVKKPGASVKVSCKASGFNIKDDYIHWVRQAPGQGLEWMGWIDSENGDTEYASKFQGRVTITADTSANTAYMELSSLRSEDTAVYYCATSSYYSYDLFVYWGQGTLVTVSS
VL: DVQMTQSPSSLSASVGDRVTITCKSSQSLLHSNGKTYLNWLQQKPGQAPKLLLYLVSKLESGVPSRFSGSGSGTDYTLTISSLQPEDFATYYCLQTTHLYTFGQGTKLEIK
notes: Expressed as IgG1 mAb: human IgG1 CH1-CH2-CH3 and human constant kappa

EC50 (read off the curve) [10]: ~3 nM
B5: chimeric protein of murine 5E7 variable regions and human IgG1/Igκ constant regions (antibody, V domains shown)
VH: EVQLQQSGAELVRPGASVKLSCTASGFNIKDDYIHWVKQWPEQGLEWIGWIDSENGDTEYASKFQGKATMTADTSSNTAYLQLSGLTSEDTAVYYCTTSSYYSYDLFVYWGQGTLVTVSA
VL: DVLMTQTPLTLSVPIGQPASISCKSSQSLLHSNGKTYLNWLLQRPGQSPKLLIYLVSKLESGVPDRFSGSGSGTDFTLKISRVEAEDLGVYYCLQTTHLYTFGGGTKLEIK
notes: VH cloned onto human IgG1 CH1-CH2-CH3, VL onto human constant kappa

Further lines, the binder ahead of its results:

B1: anti-DLL3 antibody clone 2H6 (antibody, V domains shown)
VH: QIQLVQSGPELKKPGETVKISCKASGYTFTTYGVNWVKQAPGKGLKWMGWINTYSGVPTYADDFKGRFAFSLETIATTAYLQINNLKNEDTATYFCARFGNYGFDYWGQGTTLTVSS
VL: DIVMTQSPSSLSVSAGEKVTMSCKSSQSLVNSGNQKNYLAWYQQKPGQPPKLLISGASTRESGVPDRFTGSGSGTDFTLTISSVQAEDLAVYYCQNDHNYPYTFGGGTKLEIK
notes: Murine antibody from a mouse hybridoma
EC50 [1]: 0.06 nM | binding result [2]: no binding | binding result [3]: no binding

B2: ADI-27740 (antibody, V domains shown)
VH: QVQLQQWGAGLLKPSETLSLTCAVYGGSFSGYYWSWIRQPPGKGLEWIGEIDHSGSTNYNPSLKSRVTISVDTSKNQFSLKLSSVTAADTAVYYCARARGPWSFDPWGQGTLVTVSS
VL: DIQMTQSPSTLSASVGDRVTITCRASQSIGSWLAWYQQKPGKAPKLLIYKASSLESGVPSRFSGSGSGTEFTLTISSLQPDDFATYYCQQYHSFYTFGGGTKVEIK
notes: also called A40
EC50 (read off the curve) [4]: ~0.4 nM | EC50 (read off the curve) [5]: ~0.2 nM | EC50 (read off the curve) [6]: ~0.3 nM | IC50 (read off the curve) [7]: ~6 nM | IC50 (read off the curve) [8]: ~20 nM

B3: ADI-27743 (antibody, V domains shown)
VH: B2 VH
VL: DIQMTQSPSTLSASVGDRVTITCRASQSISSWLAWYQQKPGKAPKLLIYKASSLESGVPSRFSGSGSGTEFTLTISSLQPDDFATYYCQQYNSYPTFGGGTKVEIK
EC50 (read off the curve) [4]: ~0.3 nM | EC50 (read off the curve) [5]: ~0.2 nM | EC50 (read off the curve) [6]: ~0.3 nM | IC50 (read off the curve) [7]: ~2 nM | IC50 (read off the curve) [8]: ~20 nM

— patent US20210221894A1 (DRAGONFLY THERAPEUTICS, published 2021)
